# In patent publication US20200157212A1 (Pfizer, published 2020):
# Biological target: T1, Rat ROBO2 on cells (rat, UniProt Q7TPD3 22-1469 (mouse entry))
# T1 chain: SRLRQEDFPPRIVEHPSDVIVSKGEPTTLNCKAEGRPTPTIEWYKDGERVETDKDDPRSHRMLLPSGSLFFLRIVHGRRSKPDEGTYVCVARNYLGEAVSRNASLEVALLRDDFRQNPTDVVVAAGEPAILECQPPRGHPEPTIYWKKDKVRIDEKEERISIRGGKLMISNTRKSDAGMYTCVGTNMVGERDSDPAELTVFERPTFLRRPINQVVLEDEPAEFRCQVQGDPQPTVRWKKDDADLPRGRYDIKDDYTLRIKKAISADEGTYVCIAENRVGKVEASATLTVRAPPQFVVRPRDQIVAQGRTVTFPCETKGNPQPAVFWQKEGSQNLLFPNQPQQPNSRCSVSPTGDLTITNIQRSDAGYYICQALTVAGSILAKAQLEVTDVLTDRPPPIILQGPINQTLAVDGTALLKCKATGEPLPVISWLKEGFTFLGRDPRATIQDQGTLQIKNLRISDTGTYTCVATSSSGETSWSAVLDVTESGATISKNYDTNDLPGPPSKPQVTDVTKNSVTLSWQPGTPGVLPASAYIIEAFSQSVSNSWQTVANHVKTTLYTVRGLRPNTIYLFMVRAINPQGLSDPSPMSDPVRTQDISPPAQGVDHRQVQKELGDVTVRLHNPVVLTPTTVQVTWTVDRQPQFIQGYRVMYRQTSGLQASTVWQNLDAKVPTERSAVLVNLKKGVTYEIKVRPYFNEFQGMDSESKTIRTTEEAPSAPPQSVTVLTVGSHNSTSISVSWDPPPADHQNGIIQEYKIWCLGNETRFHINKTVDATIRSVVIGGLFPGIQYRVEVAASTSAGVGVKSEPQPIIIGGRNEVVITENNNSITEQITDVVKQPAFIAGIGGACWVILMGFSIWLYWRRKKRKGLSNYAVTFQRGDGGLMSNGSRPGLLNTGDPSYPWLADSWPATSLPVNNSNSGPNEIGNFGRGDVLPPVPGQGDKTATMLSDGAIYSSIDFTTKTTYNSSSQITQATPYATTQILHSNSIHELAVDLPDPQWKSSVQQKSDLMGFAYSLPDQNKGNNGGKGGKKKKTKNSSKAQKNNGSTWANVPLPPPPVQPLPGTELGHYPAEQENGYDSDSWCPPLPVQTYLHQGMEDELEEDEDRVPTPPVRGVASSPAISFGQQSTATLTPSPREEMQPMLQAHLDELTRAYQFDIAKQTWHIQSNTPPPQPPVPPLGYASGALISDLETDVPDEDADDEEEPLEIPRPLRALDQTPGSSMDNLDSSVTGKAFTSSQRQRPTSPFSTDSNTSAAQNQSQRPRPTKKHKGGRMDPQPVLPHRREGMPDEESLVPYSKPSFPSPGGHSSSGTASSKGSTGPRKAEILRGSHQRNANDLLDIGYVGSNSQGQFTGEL
# Assay: cell-based or functional assay
binder,measurement,value
"Abcs35 (antibody, human IgG1, kappa, fully human IgG1; VH of Ab96 with VL of Ab123) heavy: EVQLVQSGAEVKKPGASVKVSCKASGYTFTGYYMHWVRQAPGQGLEWMGWINPKNGDTEFPQKFQGRVTMTRDTSITTAYMDLSRLRSDDTAVYYCARESGDDAFDIWGQGTMVTVSSASTKGPSVFPLAPSSKSTSGGTAALGCLVKDYFPEPVTVSWNSGALTSGVHTFPAVLQSSGLYSLSSVVTVPSSSLGTQTYICNVNHKPSNTKVDKKVEPKSCDKTHTCPPCPAPEAAGAPSVFLFPPKPKDTLMISRTPEVTCVVVDVSHEDPEVKFNWYVDGVEVHNAKTKPREEQYNSTYRVVSVLTVLHQDWLNGKEYKCKVSNKALPAPIEKTISKAKGQPREPQVYTLPPSREEMTKNQVSLTCLVKGFYPSDIAVEWESNGQPENNYKTTPPVLDSDGSFFLYSKLTVDKSRWQQGNVFSCSVMHEALHNHYTQKSLSLSPGK light: DIVMTQSPSSLSASVGDRVTITCRASQSISSYLNWYQQKPGKAPKLLIYAASSLQSGVPSRFSGSGSGTDFTLTISSLQPEDFATYYCQQSVGLFFGGGTKVEIKRTVAAPSVFIFPPSDEQLKSGTASVVCLLNNFYPREAKVQWKVDNALQSGNSQESVTEQDSKDSTYSLSSTLTLSKADYEKHKVYACEVTHQGLSSPVTKSFNRGEC","IC50, restoration of neuronal cell migration (SVZa assay)",0.027 nM
